# Data as given in patent publication US20220062373A1 (published 2022).
# Molecular target: T1, Recombinant human CD206 (MRC1/CD206) (human, UniProt P22897 19-1383)
# T1 chain: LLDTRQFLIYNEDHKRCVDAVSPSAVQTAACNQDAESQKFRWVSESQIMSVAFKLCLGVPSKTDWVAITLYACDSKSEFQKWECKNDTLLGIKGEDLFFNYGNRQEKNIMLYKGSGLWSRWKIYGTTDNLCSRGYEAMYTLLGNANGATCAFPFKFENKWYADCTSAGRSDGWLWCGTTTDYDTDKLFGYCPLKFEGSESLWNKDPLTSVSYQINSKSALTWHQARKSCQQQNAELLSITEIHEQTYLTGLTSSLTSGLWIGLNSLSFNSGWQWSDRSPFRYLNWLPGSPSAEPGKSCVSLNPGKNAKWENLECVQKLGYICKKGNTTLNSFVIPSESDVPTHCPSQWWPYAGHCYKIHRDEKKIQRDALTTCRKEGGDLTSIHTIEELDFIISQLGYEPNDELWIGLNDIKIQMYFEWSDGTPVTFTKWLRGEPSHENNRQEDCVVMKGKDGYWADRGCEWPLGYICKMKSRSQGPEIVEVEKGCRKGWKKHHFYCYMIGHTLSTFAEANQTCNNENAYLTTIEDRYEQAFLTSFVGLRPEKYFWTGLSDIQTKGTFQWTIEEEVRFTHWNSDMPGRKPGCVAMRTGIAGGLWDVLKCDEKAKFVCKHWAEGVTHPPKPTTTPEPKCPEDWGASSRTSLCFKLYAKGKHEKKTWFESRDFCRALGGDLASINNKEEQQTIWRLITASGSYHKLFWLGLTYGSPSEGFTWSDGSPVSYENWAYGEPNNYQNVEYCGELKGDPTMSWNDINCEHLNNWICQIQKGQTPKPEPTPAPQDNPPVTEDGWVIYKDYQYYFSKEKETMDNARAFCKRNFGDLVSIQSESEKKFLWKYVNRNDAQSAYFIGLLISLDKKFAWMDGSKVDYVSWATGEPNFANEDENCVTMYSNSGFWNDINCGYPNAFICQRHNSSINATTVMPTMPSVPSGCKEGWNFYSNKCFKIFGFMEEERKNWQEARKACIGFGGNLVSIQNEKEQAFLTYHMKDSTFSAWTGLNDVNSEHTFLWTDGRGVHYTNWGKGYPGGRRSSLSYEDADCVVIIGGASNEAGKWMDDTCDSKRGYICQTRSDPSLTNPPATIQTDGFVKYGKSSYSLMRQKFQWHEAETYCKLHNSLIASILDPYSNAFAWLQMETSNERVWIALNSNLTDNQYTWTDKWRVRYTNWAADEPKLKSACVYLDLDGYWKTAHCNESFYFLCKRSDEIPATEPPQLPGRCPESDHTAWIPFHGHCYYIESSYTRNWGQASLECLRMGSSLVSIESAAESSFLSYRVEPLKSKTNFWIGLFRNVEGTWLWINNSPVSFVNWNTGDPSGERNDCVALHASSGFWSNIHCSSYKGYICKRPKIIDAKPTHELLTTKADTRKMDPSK
# Assay: MST
binder,measurement,value
KFRKAFKRFF [RP-182],Kd,8.37 µM
